Assay results reported in patent publication US20240018188A1.
[ ]: non-standard residue; d: D form. dNle = CCCC[C@@H](N)C(=O)O

B1: Compound 11 (peptide)
peptide: Ac-[dL][dNle][dR]G[dV][dR][dL][dR][dV]G[dL][dR][dK][dR][dR][dR][dR]G[dY]-NH2
SMILES: CCCC[C@@H](NC(=O)[C@@H](CC(C)C)NC(C)=O)C(=O)N[C@H](CCCNC(=N)N)C(=O)NCC(=O)N[C@@H](C(=O)N[C@H](CCCNC(=N)N)C(=O)N[C@H](CC(C)C)C(=O)N[C@H](CCCNC(=N)N)C(=O)N[C@@H](C(=O)NCC(=O)N[C@H](CC(C)C)C(=O)N[C@H](CCCNC(=N)N)C(=O)N[C@H](CCCCN)C(=O)N[C@H](CCCNC(=N)N)C(=O)N[C@H](CCCNC(=N)N)C(=O)N[C@H](CCCNC(=N)N)C(=O)N[C@H](CCCNC(=N)N)C(=O)NCC(=O)N[C@H](Cc1ccc(O)cc1)C(N)=O)C(C)C)C(C)C
B2: Compound 9 (peptide)
peptide: Ac-[dL][dNle][dR][dS][dV][dR][dL][dR][dV]G[dL][dR][dK][dR][dR][dR][dR][dR][dR][dR]-NH2
SMILES: CCCC[C@@H](NC(=O)[C@@H](CC(C)C)NC(C)=O)C(=O)N[C@H](CCCNC(=N)N)C(=O)N[C@H](CO)C(=O)N[C@@H](C(=O)N[C@H](CCCNC(=N)N)C(=O)N[C@H](CC(C)C)C(=O)N[C@H](CCCNC(=N)N)C(=O)N[C@@H](C(=O)NCC(=O)N[C@H](CC(C)C)C(=O)N[C@H](CCCNC(=N)N)C(=O)N[C@H](CCCCN)C(=O)N[C@H](CCCNC(=N)N)C(=O)N[C@H](CCCNC(=N)N)C(=O)N[C@H](CCCNC(=N)N)C(=O)N[C@H](CCCNC(=N)N)C(=O)N[C@H](CCCNC(=N)N)C(=O)N[C@H](CCCNC(=N)N)C(=O)N[C@H](CCCNC(=N)N)C(N)=O)C(C)C)C(C)C

Molecular target: human RAD51 (human) (UniProt Q06609)
Sequence (Q06609 2-339 limits assumed): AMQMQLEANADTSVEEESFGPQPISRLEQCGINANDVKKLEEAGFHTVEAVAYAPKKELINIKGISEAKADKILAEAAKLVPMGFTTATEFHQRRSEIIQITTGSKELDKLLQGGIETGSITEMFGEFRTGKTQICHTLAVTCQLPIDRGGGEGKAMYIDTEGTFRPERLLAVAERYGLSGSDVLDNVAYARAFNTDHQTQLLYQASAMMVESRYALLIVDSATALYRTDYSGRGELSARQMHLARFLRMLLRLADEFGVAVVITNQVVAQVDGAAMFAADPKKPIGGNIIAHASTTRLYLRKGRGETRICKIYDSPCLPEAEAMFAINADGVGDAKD
Assay: cell-based or functional assay

Binder	IC50
B1	9 µM
B2	20 µM
